Laboratory results taken from publication PMC5906681, “BRI1 and BAK1 interact with G proteins and regulate sugar-responsive growth and development in Arabidopsis” (Nature Communications, 2018).

Biological target: T1, GST-fused BRI1 kinase domain (Arabidopsis, UniProt O22476 814-1196)
T1 construct: BRASSINOSTEROID … 1 (BRI1), Arabidopsis, kinase domain, residues 814-1196; also called GST-BRI1-KD; BRI1-KD; source: E. coli (pGEX-4T-1); not shown: GST, N-terminal, kept
T1 sequence (looked up): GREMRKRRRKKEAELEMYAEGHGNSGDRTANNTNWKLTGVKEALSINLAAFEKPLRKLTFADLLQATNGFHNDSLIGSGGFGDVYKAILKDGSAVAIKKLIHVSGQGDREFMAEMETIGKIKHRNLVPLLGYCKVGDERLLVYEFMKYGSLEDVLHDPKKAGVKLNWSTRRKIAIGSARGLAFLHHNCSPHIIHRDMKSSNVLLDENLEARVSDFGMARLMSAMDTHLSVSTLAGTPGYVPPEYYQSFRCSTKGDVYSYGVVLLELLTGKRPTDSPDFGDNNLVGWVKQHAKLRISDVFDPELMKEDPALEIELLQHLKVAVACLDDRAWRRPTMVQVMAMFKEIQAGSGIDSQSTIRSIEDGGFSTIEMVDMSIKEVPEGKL
Assay: pull-down; about 15 μg GST fusion with about 30 μg MBP fusion in 900 μL TGH buffer (10% glycerol, 1% Triton X-100, 1.5 mM MgCl2, 150 mM NaCl, 1 mM EGTA, 50 mM HEPES, pH 7.5); 30 μL GST beads, about 1 h; immunoblot with anti-MBP and anti-GST
Settings: both partners purified

B1: MBP-AGG1 (natural protein, Arabidopsis, UniProt Q9FDX9 1-98, looked up)
chain: MREETVVYEQEESVSHGGGKHRILAELARVEQEVAFLEKELKEVENTDIVSTVCEELLSVIEKGPDPLLPLTNGPLNLGWDRWFEGPNGGEGCRCLIL
notes: AGG1, Arabidopsis G protein gamma subunit 1; also called G protein gamma subunit; source: E. coli (pMAL-c2); not shown: MBP, N-terminal, kept
B1: binds.

B2: MBP-AGB1 (natural protein, Arabidopsis, UniProt P49177 1-377, looked up)
chain: MSVSELKERHAVATETVNNLRDQLRQRRLQLLDTDVARYSAAQGRTRVSFGATDLVCCRTLQGHTGKVYSLDWTPERNRIVSASQDGRLIVWNALTSQKTHAIKLPCAWVMTCAFSPNGQSVACGGLDSVCSIFSLSSTADKDGTVPVSRMLTGHRGYVSCCQYVPNEDAHLITSSGDQTCILWDVTTGLKTSVFGGEFQSGHTADVLSVSISGSNPNWFISGSCDSTARLWDTRAASRAVRTFHGHEGDVNTVKFFPDGYRFGTGSDDGTCRLYDIRTGHQLQVYQPHGDGENGPVTSIAFSVSGRLLFAGYASNNTCYVWDTLLGEVVLDLGLQQDSHRNRISCLGLSADGSALCTGSWDSNLKIWAFGGHRRVI
notes: AGB1, Arabidopsis G protein beta subunit; Cloned into the EcoR I and Pst I sites of pMAL-c2; also called G protein beta subunit; source: E. coli (pMAL-c2); not shown: MBP, N-terminal, kept
B2: binds.

B3: MBP-AGG2 (natural protein, Arabidopsis, UniProt Q93V47 1-100, looked up)
chain: MEAGSSNSSGQLSGRVVDTRGKHRIQAELKRLEQEARFLEEELEQLEKMDNASASCKEFLDSVDSKPDPLLPETTGPVNATWDQWFEGPKEAKRCGCSIL
notes: AGG2, Arabidopsis G protein gamma subunit 2; also called G protein gamma subunit; source: E. coli (pMAL-c2); not shown: MBP, N-terminal, kept
B3: binds.

B4: MBP-AGG3 (natural protein, Arabidopsis, UniProt Q6AWT8 1-251, looked up)
chain: MSAPSGGGEGGGKESAAGGVSSSSLAPSSLPPPRPKSPPEYPDLYGKRREAARVQMLEREIGFLEGEIKFIEGVQPASRCIKEVSDFVVANSDPLIPAQRKSRRSFRFWKWLCGPCLSLVSFCCCCQSKCSCHLRKPKCCNCTSCSCIGSKCCDGSCCSNICCCPRLSCPSCSCFRGCWCSCPDMSCCIPSCFRSCSCTRPSCLNKKKSSCCSCNCKIRWSSCFSCPKVRLCSCCFCNCKNLCSNPCCLAF
notes: AGG3, Arabidopsis G protein gamma subunit 3; also called G protein gamma subunit; source: E. coli (pMAL-c2); not shown: MBP, N-terminal, kept
B4: binds.
